The target in test [1] is HPV 45 L1 aa 1–513 (human papillomavirus type 45). The test can be described thus: not stated; purified L1 under reducing conditions (Fig. S4); about ~8 nm in diameter; monomers to pentamer.
For test [2] the target is unchanged. The test can be described thus: cryo-EM structure; purified VLPs at ~3 mg/mL vitrified on Quantifoil holey carbon grids; FEI TF30 at 300 kV; T = 7 particle images boxed manually; pentamers to VLP.
Test [3] addresses HPV 52 L1 aa 15–503 (human papillomavirus type 52). Briefly: not stated; purified L1 under reducing conditions (Fig. S4); about ~8 nm in diameter; monomers to pentamer.
The target is the same in test [4]. The test can be described thus: cryo-EM structure; purified VLPs at ~3 mg/mL vitrified on Quantifoil holey carbon grids; FEI TF30 at 300 kV; T = 7 particle images boxed manually; pentamers to VLP.
Test [5] has as its target HPV 58 L1 aa 10–498 (human papillomavirus type 58). The test can be described thus: not stated; purified L1 under reducing conditions (Fig. S4); about ~8 nm in diameter; monomers to pentamer.
The target is the same in test [6]. Briefly: cryo-EM structure; purified VLPs at ~3 mg/mL vitrified on Quantifoil holey carbon grids; FEI TF30 at 300 kV; T = 7 particle images boxed manually; pentamers to VLP.
Test [7] has as its target HPV 33 L1 aa 10–499 (human papillomavirus type 33) (UniProt P06416). Briefly: not stated; purified L1 under reducing conditions (Fig. S4); about ~8 nm in diameter; monomers to pentamer.
Test [8] has the same target. The test can be described thus: cryo-EM structure; purified VLPs at ~3 mg/mL vitrified on Quantifoil holey carbon grids; FEI TF30 at 300 kV; T = 7 particle images boxed manually; pentamers to VLP.

With HPV 45 L1 aa 1–513 (natural protein), the stoichiometry N – broadly, the number of molecules, sites or subunits per partner or assembly – in test [1] amounted to 5. The stoichiometry N (pentamers per particle) in test [2] was determined as 72.
The substance “HPV 52 L1 aa 15–503 (domain or fragment)” had a stoichiometry N in test [3] of 5. The substance further registered a stoichiometry N (pentamers per particle) in test [4] of 72.
On to “HPV 58 L1 aa 10–498 (domain or fragment)”, for which the stoichiometry N in test [5] is 5. For the same substance, the stoichiometry N (pentamers per particle) in test [6] was found to be 72.
Substance “HPV 33 L1 aa 10–499 (from UniProt P06416 10-499) (domain or fragment)” yielded a stoichiometry N in test [7] of 5. Further, in test [8], the stoichiometry N (pentamers per particle) is 72.

The values are drawn from publication PMC6156512.
